Laboratory results as given in patent publication US20240209099A1 (SUZHOU TRANSCENTA THERAPEUTICS, published 2024).
Where “and” joins values, the source holds several entries; their conditions need not be identical. Identical values can stand only once.

B1: 054 (mouse hybridoma antibody) (antibody, V domains shown)
VH: EVQLVESGGDLVKPGGSLKLSCAASGFTFSMYGMSWVRQTPDKRLEWVASISIGGSYTYYADSVEGRFIISRENAKNTLFLQMNSLKSEDTALYYCARELDGNYDYWGQGTTLTVSS
VL: HIMITQDELSNPVTFGESVSISCRSSKSLLYKDGKTYLNWFLQRPGQSPQLLIYLMSTRASGVSDRFSGSGSGTDFTLEISRVKAEDVGIYYCQQLVEYPFTFGSGTKLEIK
notes: Mouse antibody purified from hybridoma; also called mAb054; 10D11
B2: chimeric-DC101 (anti-mouse VEGFR2 antibody DC101 with human IgG1 Fc) (antibody, V domains shown)
VH: EVQLVETGGGLVQPGNSLKLSCATSGFIFSTTWMNWIRQTPGKRLEWLAQIEDKSNNYFISYSESVKGRFTISRDDSKSSVYLQMNNLKEEDTAIYYCSWKYRSNYYFDYWGQGVMVTVSS
VL: DIVLTQSPALAVSLEQRATISCKTSQNVDYYGISYLHWYQQKPGQQPKLLIYEGSNLASGIPARFSGSGSGTDFTLTIDPVEADDIVTYYCQQSKDYPYTFGAGTKLELKR

What was measured:
[1] = biological target: T1, Recombinant Human VEGFR2/KDR Protein, His tag (hVEGFR2-his) (human, UniProt P35968 20-764); test: ELISA, hVEGFR2-his coated
T1 construct: Expressed in HEK293, bought from ACRO Biosystems; also called human VEGFR2-his; Human VEGFR2/KDR-His
Description: Same protocol of Example 2 antibody screening by ELISA assay. Briefly, 0.5 μg/ml hVEGFR2-his was coated and serially diluted purified antibodies would bind to coated antigen. Using HRP conjugated goat anti-mouse Fc antibody could detect binding signals of each antibody.
The hybridoma antibodies have similar affinity to human.

[2] = biological target: T1, Recombinant Human VEGFR2/KDR Protein, …; test: SPR (Biacore), antibody captured by anti-Fc, antigen 2.5-80 nM
Method in brief: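 Human or mouse Fc-captured antibody (200–300 RU) on anti-Fc CM5 surface; antigen injected at 2.5–80 nM in HBS-EP pH 7.4 with 180 s association. Reference-cell-subtracted sensorgrams; regeneration with glycine pH 1.5.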

[3] = biological target: T2, human VEGFR2 on HUVEC cells (human, UniProt P35968 20-1356); test: flow cytometry on HUVEC cells, percent shifted cells (Shift%), anti-mouse IgG-PE
T2 construct: also called hVEGFR2 on HUVEC
Description: Log phase HUVEC cells were collected, counted and resuspended in FACS buffer (5% BSA+PBS). 2×10∧5 cells were added to each tube and then washed once with PBS (1500 rpm, 5 mins, RT). Then […] serial diluted VEGFR2 antibodies purified from hybridoma supernatant in FACS buffer were added into corresponding tubes and were incubated at 4° C. for 1 hr. The cells were then washed twice with 1 ml PBS, followed by adding 100 μl/tube of 2nd antibody (1:400 anti-mIgG (H+L)-PE, Cell signaling #8887) in FACS buffer. The cells were incubated at 4° C. for 0.5 hr and then washed twice with PBS, followed by resuspending cells in 600 μl PBS for each sample. The cells were then transferred into FACS tube and the bindings of the antibodies to the cells were detected using flow cytometry (BD Accuri C6) (see FIG. 3).
The percentage of positive binding cells was calculated and fit by Graphpad Prism Software.

[4] = biological target: T1, Recombinant Human VEGFR2/KDR Protein, …; test: SPR (Biacore), antibody captured by anti-Fc, antigen 2.5-80 nM; second entry for mAb054 10D11F4D1F6 (r13; r11 gives another run)
Description: A CM5 sensor chip was activated in each flow cell by 7-min injection (10 μl/min) of freshly prepared 1:1 50 mM N-hydroxysuccinimide (NHS): 200 mM 1-ethyl-3-(3-dimethylaminopropyl)-carbodiimide (EDC). Then anti-human Fc antibody (GE Healthcare) in a concentration of 10 μg/ml in 10 mM sodium acetate buffer PH 5.0 was injected onto the activated chip at 10 μl/min (HBS-EP running buffer: 10 mM HEPES, 150 mM NaCl, 3.4 mM EDTA, 0.005% surfactant P20, pH 7.4). The remaining active coupling sites were blocked by 7 min injection of 1M ethanolamine at 10 μl/min. The immobilization level of each flow cell is ˜9000RU. Antibodies were captured in FC2 by anti-human Fc IgG or anti-mouse Fc (GE Healthcare) to 200˜300RU. FC1 was used as the reference cell. Antigen was injected at varying concentrations (2.5 nM, 5 nM, 10 nM, 20 nM, 40 nM and 80 nM) after capture of antibody. The association time for antibody binding antigen is 180s. Surface Regeneration condition is 120s at 10 μl/min in Gly pH1.5. The signals with captured antibody subtracted from those without captured antibody were calculated with Biacore X100 evaluation software ver. 2.0 (Biacore).

[5] = biological target: T1, Recombinant Human VEGFR2/KDR Protein, …; test: competition ELISA on coated hVEGFR2-his: hybridoma antibody titrated against 100 ng/ml chimeric 002C, anti-human IgG Fc-HRP
[6] = biological target: T1, Recombinant Human VEGFR2/KDR Protein, …; test: competition ELISA: hVEGFR2-his coated (1 ug/ml), antibody titrated, then 0.3 ug/ml hVEGF-A added and bound VEGF-A detected; blocked ligand hVEGF-A
Description: High-binding clear polystyrene 96 well plates were coated with 100 μl/well of 1 μg/ml hVEGFR2-his overnight at 4° C. After washing and blocking, serial diluted antibodies (from 10 μg/ml to 0.0006 μg/ml) were added and incubate for 1 hour at RT. 0.3 μg/ml hVEGF-A (Acrobiosystem, Cat #VE5-H4210) were added and incubated for 2 hour at RT. Then 100 μl/well of 0.25 μg/ml Biotinylated Rabbit Anti-human VEGF-A (Peprotech, Cat #400-P10Bt) was then added for detecting bound VEGF-A. Then 100 μl/well of a solution of HRP conjugated Neutravidin antibody (Pierce, Cat #31001) and TMB were added sequentially. Finally, reaction was terminated using 0.64M H₂SO₄ and plates were read at 450 nm.

[7] = biological target: T3, mouse VEGFR2 (mouse, UniProt P35918 20-762, limits assumed); test: ELISA, 500 ng/mL mouse VEGFR2 coated, three lots
Description: (§1) ELISA binding assay was conducted to confirm its binding affinity. Briefly, ELISA plates were coated with 500 ng/mL mouse VEGFR2 in coating buffer (0.16% Na₂CO₃, 0.30% NaHCO₃) and incubated at 4° C. overnight. After twice washing, blocking buffer (1% BSA, 1% goat serum, 0.05% Tween20 in PBS) was added and plates were incubated at room temperature for 2 hours. After three times washing, serial diluted chimeric-DC101 was added in dilution buffer (1% BSA, 1% goat serum, 0.01% Tween20 in PBS) and plates were incubated at room temperature for 3 hours. After three times washing, goat anti-human HRP (1:5000 diluted) was added and plates were incubated at room temperature for 1 hour. Finally, after three times washing, TMB was added and 4 mins later 0.16 mol/L sulfuric acid was added to terminate the reaction. OD450 nm was read and recorded.

[8] = biological target: T3, mouse VEGFR2; test: ELISA, mouse VEGFR2 coated (500 ng/mL), goat anti-human HRP
Description: as §1

[9] = biological target: T3, mouse VEGFR2; test: competition ELISA: human VEGF165 coated (250 ng/mL), antibody titrated with 1000 ng/mL mouse VEGFR2, bound mouse VEGFR2 detected; blocked ligand human VEGF165
Description: ELISA blocking assay was conducted to confirm its VEGF blockade activity. Briefly, ELISA plates were coated with 250 ng/mL recombinant human VEGF165 in coating buffer and incubated at 4° C. overnight. After twice washing, blocking buffer was added and plates were incubated at room temperature for 2 hours. After three times washing, serial diluted chimeric-DC101 was added in dilution buffer and then 1000 ng/mL mouse VEGFR2 was added. Plates were incubated at room temperature for 3 hours. After three times washing, polyclonal anti-mouse VEGFR2 with mouse Fc (1: 1000) was added and plates were incubated at room temperature for 1 hour. After three times washing, goat anti-mouse HRP (1:5000 diluted) was added and plates were incubated at room temperature for 1 hour. Finally, after three times washing, TMB was added and 4 mins later 0.16 mol/L sulfuric acid was added to terminate the reaction. OD450 nm was read and recorded.

T3 sequence (P35918 20-762 limits assumed): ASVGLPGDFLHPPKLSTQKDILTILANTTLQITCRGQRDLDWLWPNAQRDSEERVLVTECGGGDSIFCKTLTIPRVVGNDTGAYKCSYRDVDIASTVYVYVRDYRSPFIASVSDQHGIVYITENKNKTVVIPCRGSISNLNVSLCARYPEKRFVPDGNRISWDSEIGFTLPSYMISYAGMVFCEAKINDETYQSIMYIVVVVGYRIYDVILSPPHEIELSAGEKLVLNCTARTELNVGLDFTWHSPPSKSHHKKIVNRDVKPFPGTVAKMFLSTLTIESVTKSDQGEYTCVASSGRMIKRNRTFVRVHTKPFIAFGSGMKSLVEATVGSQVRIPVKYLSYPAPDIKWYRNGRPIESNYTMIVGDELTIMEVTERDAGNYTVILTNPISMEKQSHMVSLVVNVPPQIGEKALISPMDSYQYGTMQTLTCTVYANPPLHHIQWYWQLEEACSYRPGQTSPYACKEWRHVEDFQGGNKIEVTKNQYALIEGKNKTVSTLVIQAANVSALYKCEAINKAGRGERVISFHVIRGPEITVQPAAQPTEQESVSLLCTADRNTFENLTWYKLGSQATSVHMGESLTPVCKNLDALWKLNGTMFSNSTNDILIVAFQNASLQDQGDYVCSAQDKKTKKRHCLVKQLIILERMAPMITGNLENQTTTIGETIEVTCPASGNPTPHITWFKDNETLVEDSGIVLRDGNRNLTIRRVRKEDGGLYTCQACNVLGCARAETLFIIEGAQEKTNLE
T1 sequence (P35968 other isoform, or with tags, fused parts or gaps): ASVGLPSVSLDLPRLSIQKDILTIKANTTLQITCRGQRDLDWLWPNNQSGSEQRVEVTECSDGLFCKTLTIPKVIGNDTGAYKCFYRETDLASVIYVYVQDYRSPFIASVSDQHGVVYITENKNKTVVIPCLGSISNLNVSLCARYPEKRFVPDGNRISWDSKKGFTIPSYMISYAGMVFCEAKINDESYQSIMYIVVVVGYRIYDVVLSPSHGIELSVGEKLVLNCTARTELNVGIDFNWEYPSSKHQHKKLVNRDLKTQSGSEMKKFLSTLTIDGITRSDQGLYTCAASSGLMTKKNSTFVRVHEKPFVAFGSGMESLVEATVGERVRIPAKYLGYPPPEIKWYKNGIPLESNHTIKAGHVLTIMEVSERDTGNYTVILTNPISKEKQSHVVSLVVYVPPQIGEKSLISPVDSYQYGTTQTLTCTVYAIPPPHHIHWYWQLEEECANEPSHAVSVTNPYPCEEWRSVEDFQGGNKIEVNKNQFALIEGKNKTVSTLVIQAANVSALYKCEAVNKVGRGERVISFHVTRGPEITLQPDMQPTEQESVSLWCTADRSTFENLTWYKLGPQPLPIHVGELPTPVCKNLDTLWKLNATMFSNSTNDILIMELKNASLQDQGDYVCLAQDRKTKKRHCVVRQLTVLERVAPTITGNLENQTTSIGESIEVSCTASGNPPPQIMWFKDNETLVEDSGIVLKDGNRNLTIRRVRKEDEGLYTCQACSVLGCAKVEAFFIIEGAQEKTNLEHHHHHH
T2 sequence (P35968 20-1356 V297I/Q472H limits assumed): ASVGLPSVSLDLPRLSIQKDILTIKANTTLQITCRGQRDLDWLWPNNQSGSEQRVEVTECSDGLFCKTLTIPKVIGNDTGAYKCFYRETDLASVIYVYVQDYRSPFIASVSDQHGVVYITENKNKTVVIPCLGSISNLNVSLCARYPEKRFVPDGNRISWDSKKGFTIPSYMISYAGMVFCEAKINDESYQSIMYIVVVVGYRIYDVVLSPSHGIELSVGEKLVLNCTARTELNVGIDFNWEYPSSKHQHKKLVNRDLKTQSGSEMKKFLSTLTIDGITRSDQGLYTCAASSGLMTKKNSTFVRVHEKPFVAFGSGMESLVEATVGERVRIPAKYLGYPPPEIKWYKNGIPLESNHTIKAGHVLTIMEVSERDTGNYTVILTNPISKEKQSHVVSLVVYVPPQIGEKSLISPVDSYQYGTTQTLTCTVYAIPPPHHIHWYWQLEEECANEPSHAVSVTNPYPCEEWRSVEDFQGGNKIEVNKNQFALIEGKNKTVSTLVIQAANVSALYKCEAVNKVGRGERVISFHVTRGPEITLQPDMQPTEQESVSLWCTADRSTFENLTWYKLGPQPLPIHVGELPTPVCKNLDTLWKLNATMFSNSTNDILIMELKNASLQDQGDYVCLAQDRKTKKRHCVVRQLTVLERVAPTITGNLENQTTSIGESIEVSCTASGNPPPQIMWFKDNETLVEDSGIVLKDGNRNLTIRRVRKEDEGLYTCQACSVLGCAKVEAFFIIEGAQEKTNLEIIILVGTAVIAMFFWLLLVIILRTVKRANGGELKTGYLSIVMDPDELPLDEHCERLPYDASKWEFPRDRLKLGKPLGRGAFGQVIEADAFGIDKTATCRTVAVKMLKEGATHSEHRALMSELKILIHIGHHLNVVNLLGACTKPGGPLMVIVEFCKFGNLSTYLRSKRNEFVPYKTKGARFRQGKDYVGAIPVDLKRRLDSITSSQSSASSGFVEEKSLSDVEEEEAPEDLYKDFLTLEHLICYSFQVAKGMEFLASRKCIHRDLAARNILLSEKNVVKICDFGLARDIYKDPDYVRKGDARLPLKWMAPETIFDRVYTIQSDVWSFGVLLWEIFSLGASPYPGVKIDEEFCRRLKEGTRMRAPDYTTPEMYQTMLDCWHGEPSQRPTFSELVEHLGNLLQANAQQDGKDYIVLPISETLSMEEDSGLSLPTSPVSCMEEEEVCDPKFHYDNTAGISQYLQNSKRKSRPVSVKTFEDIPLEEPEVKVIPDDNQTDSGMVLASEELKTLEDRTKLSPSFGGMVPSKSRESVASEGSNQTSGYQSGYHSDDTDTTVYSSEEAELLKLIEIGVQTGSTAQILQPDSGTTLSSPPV

Binder | EC50 [1] [µg/mL] | koff [2] [s⁻¹] | kon [2] | EC50 [3] [µg/mL] | koff [4] [s⁻¹] | IC50 (read off the curve) [5] [µg/mL] | IC50 [6] [µg/mL] | EC50 [7] [µg/mL] | EC50 [8] | IC50 [9]
B1 | 0.00809 | 9.12e-05 | 91800 M⁻¹ s⁻¹ and 97000 M⁻¹ s⁻¹ | 0.0612 | 1.22e-05 | ~0.1 | 0.0433 | – | – | –
B2 | – | – | – | – | – | – | – | ~0.06 | 0.0645 µg/mL and 0.0477 µg/mL and 0.0764 µg/mL | 0.301 µg/mL and 0.28 µg/mL and 0.265 µg/mL
